# Source: patent US10081665B2, “Peptides and combination of peptides for use in immunotherapy against various tumors” (immatics biotechnologies GmbH, priority 2015, dated 2018)
# Target: HLA-A*02:01 (Homo sapiens, UniProt P04439, D140Y/D185E/D98H/E176V/E277Q/G131W/G231S/I119V/I121R/I166T/I218V/L300P/L318F/N151K/N90K/P208A/P217A/Q86G/Q94H/R138H/R169H/T345S)
# Experiment: MHC binding assay (UV-ligand exchange, beta2m ELISA)
# Conditions: binding to HLA-A*02:01, β2m ELISA
# Procedure, shortened: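 Peptide-MHC complexes made by UV-ligand exchange of a UV-cleavable peptide for test peptide; exchange yield measured by β2m ELISA on streptavidin-coated plates with samples diluted 100-fold, HRP anti-β2m and TMB read at 450 nm. Refolded HLA-A*02:01/MLA-001 monomers (15-500 ng/ml) served as standards.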
row,Substance,"Peptide exchange (MHC class I binding score, peptide exchange yield)"
1,224 (LLFDWSGTGRADA; listed as Homo sapiens) [compound 224],+++ (≥50 = +++)
2,225 (FLPQPVPLSV; listed as Homo sapiens) [compound 225],+++ (≥50 = +++)
3,226 (SLAGNLQEL; listed as Homo sapiens) [compound 226],+++ (≥50 = +++)
4,227 (SEMEELPSV; listed as Homo sapiens) [compound 227],+ (≥10% = +)
5,228 (SLLELDGINLRL; listed as Homo sapiens) [compound 228],+++ (≥50 = +++)
6,229 (YLYELEHAL; listed as Homo sapiens) [compound 229],++ (≥20% = ++)
7,230 (KLLNMIFSI; listed as Homo sapiens) [compound 230],+++ (≥50 = +++)
8,231 (LLDDIFIRL; listed as Homo sapiens) [compound 231],+++ (≥50 = +++)
9,234 (VLLNEILEQV; listed as Homo sapiens) [compound 234],++++ (≥75% = ++++)
10,235 (SLLNQPKAV; listed as Homo sapiens) [compound 235],++ (≥20% = ++)
11,237 (ALLEQTGDMSL; listed as Homo sapiens) [compound 237],+++ (≥50 = +++)
12,238 (HLQEKLQSL; listed as Homo sapiens) [compound 238],++ (≥20% = ++)
13,239 (VIIKGLEEITV; listed as Homo sapiens) [compound 239],+++ (≥50 = +++)
14,241 (KQFEGTVEI; listed as Homo sapiens) [compound 241],+++ (≥50 = +++)
15,243 (GLAEFQENV; listed as Homo sapiens) [compound 243],++ (≥20% = ++)
16,244 (NVAEIVIHI; listed as Homo sapiens) [compound 244],+++ (≥50 = +++)

row,Substance,"Peptide exchange (MHC class I binding score, peptide exchange yield)"
1,245 (ALLEEEEGV; listed as Homo sapiens) [compound 245],++ (≥20% = ++)
2,247 (NLLIDDKGTIKL; listed as Homo sapiens) [compound 247],++ (≥20% = ++)
3,248 (VLMQDSRLYL; listed as Homo sapiens) [compound 248],+++ (≥50 = +++)
4,249 (YLYQILQGI; listed as Homo sapiens) [compound 249],+++ (≥50 = +++)
5,250 (LMQDSRLYL; listed as Homo sapiens) [compound 250],+++ (≥50 = +++)
6,251 (LLWGNLPEI; listed as Homo sapiens) [compound 251],+++ (≥50 = +++)
7,252 (SLMEKNQSL; listed as Homo sapiens) [compound 252],++ (≥20% = ++)
8,253 (KLLAVIHEL; listed as Homo sapiens) [compound 253],+++ (≥50 = +++)
9,256 (FLNDIFERI; listed as Homo sapiens) [compound 256],+++ (≥50 = +++)
10,258 (QLVQRVASV; listed as Homo sapiens) [compound 258],++ (≥20% = ++)
11,259 (GPGIFPPPPPQP; listed as Homo sapiens) [compound 259],+ (≥10% = +)
12,261 (GLAALAVHL; listed as Homo sapiens) [compound 261],+++ (≥50 = +++)
13,262 (LLLEAVWHL; listed as Homo sapiens) [compound 262],+++ (≥50 = +++)
14,265 (FLLDKPQDLSI; listed as Homo sapiens) [compound 265],+++ (≥50 = +++)
15,266 (FLLDKPQDL; listed as Homo sapiens) [compound 266],++ (≥20% = ++)
16,268 (SLDKDIVAL; listed as Homo sapiens) [compound 268],++ (≥20% = ++)

# The next lines start with the values.
row,"Peptide exchange (MHC class I binding score, peptide exchange yield)",Substance
1,++++ (≥75% = ++++),269 (GLLDCPIFL; listed as Homo sapiens) [compound 269]
2,+++ (≥50 = +++),270 (TLLTFFHEL; listed as Homo sapiens) [compound 270]
3,+++ (≥50 = +++),271 (VLIEYNFSI; listed as Homo sapiens) [compound 271]
4,++ (≥20% = ++),272 (FVMEGEPPKL; listed as Homo sapiens) [compound 272]
5,++ (≥20% = ++),273 (SLNKQIETV; listed as Homo sapiens) [compound 273]
6,+++ (≥50 = +++),274 (TLYNPERTITV; listed as Homo sapiens) [compound 274]
7,++ (≥20% = ++),275 (AVPPPPSSV; listed as Homo sapiens) [compound 275]
8,+++ (≥50 = +++),276 (RMPTVLQCV; listed as Homo sapiens) [compound 276]
9,+++ (≥50 = +++),277 (KLQEELNKV; listed as Homo sapiens) [compound 277]
10,+++ (≥50 = +++),278 (VLEDKVLSV; listed as Homo sapiens) [compound 278]
11,++ (≥20% = ++),279 (VLMDEGAVLTL; listed as Homo sapiens) [compound 279]
12,+++ (≥50 = +++),280 (HLWGHALFL; listed as Homo sapiens) [compound 280]
13,++ (≥20% = ++),281 (LLLESDPKVYSL; listed as Homo sapiens) [compound 281]
14,++ (≥20% = ++),282 (SLYALHVKA; listed as Homo sapiens) [compound 282]
15,+++ (≥50 = +++),283 (ALSELLQQV; listed as Homo sapiens) [compound 283]
16,++ (≥20% = ++),284 (KLMDPGSLPPL; listed as Homo sapiens) [compound 284]
17,+++ (≥50 = +++),285 (MLLDTVQKV; listed as Homo sapiens) [compound 285]
18,+++ (≥50 = +++),286 (FLTEMVHFI; listed as Homo sapiens) [compound 286]
